Source: paper PMC5548887 (2017)

What was measured:
[1] = molecular target: UbcH7 wild type (UniProt P68036 1-154); assay: ITC
[2] = molecular target: UbcH7 K96S (UniProt P68036 1-154, K96S); assay: ITC

Kd [1]: 0.965 µM
Kd [2]: 15.7 µM
B1: HHARI^ΔHG (protein)
chain: MDSDEGYNYEFDEDEECSEEDSGAEEEEDEDDDEPDDDTLDLGEVELVEPGLGVGGERDGLLCGETGGGGGSALGPGGGGGGGGGGGGGGPGHEQEEDYRYEVLTAEQILQHMVECIREVNEVIQNPATITRILLSHFNWDKEKLMERYFDGNLEKLFAECHVINPSKKSRTRQMNTRSSAQDMPCQICYLNYPNSYFTGLECGHKFCMQCWSEYLTTKIMEEGMGQTISCPACDILVDDNTVMRLITDSKVKLKYQHLITNSFVECNRLLKWCPAPDCHHVVKVQYPDAKPVRCKCGRQFCFNCGENWHDPVKCKWLKKWIKKCDDDSETSNWIAANTKECPKCHVTIEKDGGCNHMVCRNQNCKAEFCWVCLGPWEPHGSAWYNCNRYNEDDAKAA
